According to patent publication CN116082499A:

Columns and labels:
[1] = target: DENV抗原 (DENV阳性血清) (dengue virus (DENV), serotype not stated); test: sandwich ELISA, antibody at 12.5 ng/ml captured on goat anti-mouse IgG, DENV-positive serum, HRP-labelled DENV mAb
[2] = target: DENV抗原 (DENV阳性血清) (dengue virus (DENV), serotype not stated); test: sandwich ELISA, antibody at 0 ng/ml (blank without antibody), goat anti-mouse IgG, DENV-positive serum, HRP-labelled DENV mAb
[3] = target: DENV-IV抗原(一种NS1蛋白，购自菲鹏) (dengue virus serotype 4 (DENV-IV)) (UniProt P09866)
Chain of UniProt P09866 (P09866 775-1126 limits assumed): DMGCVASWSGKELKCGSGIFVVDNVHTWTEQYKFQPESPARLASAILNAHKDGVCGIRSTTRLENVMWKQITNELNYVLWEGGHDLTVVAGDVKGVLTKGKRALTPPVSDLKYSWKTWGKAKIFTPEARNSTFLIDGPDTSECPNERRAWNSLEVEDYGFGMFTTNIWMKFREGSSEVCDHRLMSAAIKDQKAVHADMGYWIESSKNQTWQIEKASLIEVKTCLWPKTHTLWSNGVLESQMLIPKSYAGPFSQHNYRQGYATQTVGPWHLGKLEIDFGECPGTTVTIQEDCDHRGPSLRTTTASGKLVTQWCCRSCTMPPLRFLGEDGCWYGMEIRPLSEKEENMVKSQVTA

[4] = target: DENV抗原 (DENV阳性血清) (dengue virus (DENV), serotype not stated); test: sandwich ELISA, antibody at 3.125 ng/ml captured on goat anti-mouse IgG, DENV-positive serum, HRP-labelled DENV mAb
[5] = target: DENV抗原 (DENV阳性血清) (dengue virus (DENV), serotype not stated); test: sandwich ELISA, antibody at 0.78125 ng/ml captured on goat anti-mouse IgG, DENV-positive serum, HRP-labelled DENV mAb
[6] = target: DENV抗原 (DENV阳性血清) (dengue virus (DENV), serotype not stated); test: sandwich ELISA, antibody at 6.25 ng/ml captured on goat anti-mouse IgG, DENV-positive serum, HRP-labelled DENV mAb
[7] = target: DENV抗原 (DENV阳性血清) (dengue virus (DENV), serotype not stated); test: sandwich ELISA, antibody at 1.5625 ng/ml captured on goat anti-mouse IgG, DENV-positive serum, HRP-labelled DENV mAb

OD (450nm, 参考630nm) [1]: 1.54 OD | OD (450nm, 参考630nm) [2]: 0.045 OD | Kd [3]: 811 nM | koff [3]: 0.0019 s⁻¹ | kon [3]: 2340 M⁻¹ s⁻¹ | OD (450nm, 参考630nm) [4]: 0.692 OD | OD (450nm, 参考630nm) [5]: 0.317 OD | OD (450nm, 参考630nm) [6]: 0.996 OD | OD (450nm, 参考630nm) [7]: 0.48 OD
Substance: 对照抗体 (antibody)
